Assay results: patent US20250188151A1, “C-JUN ANTAGONIST PEPTIDES” (The University of Bath, priority 2022, published 2025)
Bridge positions count the residues as written; N and C are the ends. Ends that are not written are not given here.

Tests used:
cJun bZIP [1] = molecular target: T1, cJun bZIP (human, UniProt P05412 252-308, limits assumed); assay: cell-based or functional assay
T1 chain: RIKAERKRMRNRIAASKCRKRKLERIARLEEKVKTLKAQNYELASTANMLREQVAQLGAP

cJun bZIP [2] = molecular target: T1, cJun bZIP; assay: cell-based or functional assay
cJun bZIP [3] = molecular target: T1, cJun bZIP; assay: CD thermal denaturation, peptide 5 µM and c-Jun 5 µM
cJun bZIP [4] = molecular target: T1, cJun bZIP; assay: ITC (PEAQ-ITC), peptide injected into cJun, one site model

B1: HingeW variant peptide 10 (peptide)
peptide: Ac-LVVEEDVLEEEIEQLEERNYALRKEIEDLQKQLEDL-NH2
modifications: lactam (positions not given here); also: one i to i+4 K-to-D lactam, places not given here (K24/D28 or K31/D35)
notes: Synthetic, NΔ24 CΔ3; also called cyclised form of 9/10
cJun bZIP [1]
  fold increase in antagonism relative to 5: 1.9 fold
cJun bZIP [2]
  IC50 CD: 69 µM
cJun bZIP [3]
  Tm (° C.) of peptide-c-Jun heterodimer: 68.3 ° C.

B2: HingeW peptide variant 2 (peptide)
peptide: Ac-LARENEELEKEAEELVVEEDVLEEEIEQLEERNYALRKEIEDLQKQLEKL-NH2
notes: Synthetic, NΔ10 CΔ3; also called peptide 2
cJun bZIP [1]
  fold decrease in antagonism, 1 to 2: 1.2 fold
  fold more effective antagonism than 10: 4 fold
cJun bZIP [2]
  IC50 CD: 16.6 µM
cJun bZIP [3]
  Tm (° C.) of peptide-c-Jun heterodimer: 68.5 ° C.

B3: HingeW peptide variant 24 (HW30) (peptide)
peptide: Ac-EAEELVVEEKVLEDEIEQLEERNYALRKEIKDLQDQ-NH2
modifications: lactam 10-14, 31-35
SMILES: CC[C@H](C)[C@H](NC(=O)[C@H](CCC(=O)O)NC(=O)[C@H](CCCCN)NC(=O)[C@H](CCCNC(=N)N)NC(=O)[C@H](CC(C)C)NC(=O)[C@H](C)NC(=O)[C@H](Cc1ccc(O)cc1)NC(=O)[C@H](CC(N)=O)NC(=O)[C@H](CCCNC(=N)N)NC(=O)[C@H](CCC(=O)O)NC(=O)[C@H](CCC(=O)O)NC(=O)[C@H](CC(C)C)NC(=O)[C@H](CCC(N)=O)NC(=O)[C@H](CCC(=O)O)NC(=O)[C@@H](NC(=O)[C@H](CCC(=O)O)NC(=O)[C@@H]1CC(=O)NCCCC[C@H](NC(=O)[C@H](CCC(=O)O)NC(=O)[C@H](CCC(=O)O)NC(=O)[C@@H](NC(=O)[C@@H](NC(=O)[C@H](CC(C)C)NC(=O)[C@H](CCC(=O)O)NC(=O)[C@H](CCC(=O)O)NC(=O)[C@H](C)NC(=O)[C@H](CCC(=O)O)NC(C)=O)C(C)C)C(C)C)C(=O)N[C@@H](C(C)C)C(=O)N[C@@H](CC(C)C)C(=O)N[C@@H](CCC(=O)O)C(=O)N1)[C@@H](C)CC)C(=O)N[C@H]1CCCCNC(=O)C[C@@H](C(=O)N[C@@H](CCC(N)=O)C(N)=O)NC(=O)[C@H](CCC(N)=O)NC(=O)[C@H](CC(C)C)NC(=O)[C@H](CC(=O)O)NC1=O
notes: Synthetic, NΔ20 CΔ7; also called double lactamised peptide
cJun bZIP [2]
  IC50 CD: 44.9 µM
cJun bZIP [3]
  Tm (° C.) of peptide-c-Jun heterodimer: 63.2 ° C.
cJun bZIP [4]
  -TΔS: 19.6 kcal/mol
  Kd: 0.00969 µM
  Stoichiometry, n: 1.05
  ΔG: -10.9 kcal/mol
  ΔH: -30.5 kcal/mol

B4: HingeW variant peptide 8 (peptide)
peptide: Ac-LVVEEDVLEEEIEQLEEKNKALKDEIEDLQKQLEKLY-NH2
modifications: lactam 20-24 (inferred); also: table prints a different, shorter sequence for 7/8
notes: See peptide 7; also called cyclised form of 7/8
cJun bZIP [1]
  fold increase in antagonism relative to 5: 1.8 fold
cJun bZIP [2]
  IC50 CD: 73.5 µM
cJun bZIP [3]
  Tm (° C.) of peptide-c-Jun heterodimer: 67.2 ° C.

B5: Peptide 5 (peptide)
peptide: Ac-LVVEEDVLEEEIEQLEERNYALRKEIEDLQKQLEKL-NH2
notes: Synthetic, NΔ24 CΔ3
cJun bZIP [1]
  fold better antagonism than 6: 1.7 fold
  fold decrease in antagonism, 3 to 5: 2.3 fold
  fold lower antagonism than 1: 5.8 fold
  fold reduction in antagonism, 4 to 5: 1.7 fold
cJun bZIP [2]
  IC50 CD: 78.2 µM
cJun bZIP [3]
  Tm (° C.) of peptide-c-Jun heterodimer: 62.8 ° C.

B6: Peptide 6 (peptide)
peptide: EDVLEEEIEQLEERNYALRKEIEDLQKQLEKLGAP-NH2
notes: NΔ28; also called LZ-only portion of the HingeW molecule
cJun bZIP [1]
  fold decrease in antagonism, 5 to 6: 1.7 fold
  fold decrease in cJun/TRE DNA antagonism, 1 to 6: 9.7 fold
cJun bZIP [2]
  IC50 CD: 130 µM
cJun bZIP [3]
  Tm (° C.) of peptide-c-Jun heterodimer: 55.1 ° C.

B7: HingeW peptide variant 3 (peptide)
peptide: Ac-LEKEAEELVVEEDVLEEEIEQLEERNYALRKEIEDLQKQLEKL-NH2
notes: Synthetic, NΔ17 CΔ3; also called peptide 3
cJun bZIP [1]
  fold decrease in antagonism, 2 to 3: 2 fold
cJun bZIP [2]
  IC50 CD: 33.7 µM
cJun bZIP [3]
  Tm (° C.) of peptide-c-Jun heterodimer: 67.9 ° C.
